Values of other authors, collected in patent US11147882B2, “Method for preserving and stabilizing proteins for formulations of sanitary, pharmaceutical and cosmetic products” (SANI-RED, S.L., priority 2013, dated 2021).

EGF: epidermal growth factor, first polypeptide isolated and characterized as a growth factor; rhEGF is the recombinant human form
half-life of rhEGF at 25° C. (25° C., based on the Arrhenius equation (Yang et al. 2005)): 6.93 h
half-life at 37 C (37 °C, pH 7.2): 3.47 h
half-life (mean life, useful life) of EGF (EGF normally, published studies): 7 h
